In US20140348819A1, “Methods of Treating Cancer” (Dana-Farber Cancer Institute, Inc., priority 2011, published 2014):

Test system: six V600E BRAF melanoma cell lines
Assay: Screening of recombinant RTK ligands for ability to confer resistance to BRAFi (PLX4720) or MEKi (PD184352) (Table 4)
Type: cell-based, human
Design: ability of recombinant RTK ligand to confer resistance / ability of recombinant RTK ligand to confer resistance (screening value): scale not given here
Outline: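 Resistance to BRAFi (PLX4720) or MEKi (PD184352) was tested in six V600E BRAF melanoma lines given one of 22 recombinant RTK ligands. For a subset of RTKs, activation was checked by high-throughput tyrosine kinase phosphorylation profiling and western blot.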

B1: BDNF (protein, UniProt P23560 19-247, looked up)
Neurotrophic factor BDNF …: APMKEANIRGQGGLAYPGVRTHGTLESVNGPKAGSRGLTSLADTFEHVIEELLDEDQKVRPNEENNKDADLYTSRVMLSSQVPLEPPLLFLLEEYKNYLDAANMSMRVRRHSDPARRGELSVCDSISEWVTAADKKTAVDMSGGTVTVLEKVPVSKGQLKQYFYETKCNPMGYTKEGCRGIDKRHWNSQCRTTQSYVRALTMDSKKRIGWRFIRIDTSCVCTLTIKRGR
A2058, PD184352 - 1 uM, ligand 0.4 ng/ml
  ability of recombinant RTK ligand to confer resistance: 0.99
A2058, PD184352 - 1 uM, ligand 1.6 ng/ml
  ability of recombinant RTK ligand to confer resistance: 0.97
A2058, PD184352 - 1 uM, ligand 6.25 ng/ml
  ability of recombinant RTK ligand to confer resistance: 0.94
A2058, PD184352 - 1 uM, ligand 25 ng/ml
  ability of recombinant RTK ligand to confer resistance: 1.03
A2058, PD184352 - 1 uM, ligand 100 ng/ml
  ability of recombinant RTK ligand to confer resistance: 1.10
A2058, PLX4720 - 2 uM, ligand 0.4 ng/ml
  ability of recombinant RTK ligand to confer resistance: 1.00
A2058, PLX4720 - 2 uM, ligand 1.6 ng/ml
  ability of recombinant RTK ligand to confer resistance: 0.95
A2058, PLX4720 - 2 uM, ligand 6.25 ng/ml
  ability of recombinant RTK ligand to confer resistance: 0.95
A2058, PLX4720 - 2 uM, ligand 25 ng/ml
  ability of recombinant RTK ligand to confer resistance: 0.98
A2058, PLX4720 - 2 uM, ligand 100 ng/ml
  ability of recombinant RTK ligand to confer resistance: 1.15
C32, PD184352 - 1 uM, ligand 0.4 ng/ml
  ability of recombinant RTK ligand to confer resistance: 1.03
C32, PD184352 - 1 uM, ligand 1.6 ng/ml
  ability of recombinant RTK ligand to confer resistance: 1.01
C32, PD184352 - 1 uM, ligand 6.25 ng/ml
  ability of recombinant RTK ligand to confer resistance: 1.06
C32, PD184352 - 1 uM, ligand 25 ng/ml
  ability of recombinant RTK ligand to confer resistance: 1.03
C32, PD184352 - 1 uM, ligand 100 ng/ml
  ability of recombinant RTK ligand to confer resistance: 0.95
C32, PLX4720 - 2 uM, ligand 0.4 ng/ml
  ability of recombinant RTK ligand to confer resistance: 1.09
C32, PLX4720 - 2 uM, ligand 1.6 ng/ml
  ability of recombinant RTK ligand to confer resistance: 0.99
C32, PLX4720 - 2 uM, ligand 6.25 ng/ml
  ability of recombinant RTK ligand to confer resistance: 1.02
C32, PLX4720 - 2 uM, ligand 25 ng/ml
  ability of recombinant RTK ligand to confer resistance: 1.01
C32, PLX4720 - 2 uM, ligand 100 ng/ml
  ability of recombinant RTK ligand to confer resistance: 0.94
Colo 829, PD184352 - 1 uM, ligand 0.4 ng/ml
  ability of recombinant RTK ligand to confer resistance: 1.03
Colo 829, PD184352 - 1 uM, ligand 1.6 ng/ml
  ability of recombinant RTK ligand to confer resistance: 0.99
Colo 829, PD184352 - 1 uM, ligand 6.25 ng/ml
  ability of recombinant RTK ligand to confer resistance: 0.98
Colo 829, PD184352 - 1 uM, ligand 25 ng/ml
  ability of recombinant RTK ligand to confer resistance: 0.98
Colo 829, PD184352 - 1 uM, ligand 100 ng/ml
  ability of recombinant RTK ligand to confer resistance: 0.93
Colo 829, PLX4720 - 2 uM, ligand 0.4 ng/ml
  ability of recombinant RTK ligand to confer resistance: 1.02
Colo 829, PLX4720 - 2 uM, ligand 1.6 ng/ml
  ability of recombinant RTK ligand to confer resistance: 1.00
Colo 829, PLX4720 - 2 uM, ligand 6.25 ng/ml
  ability of recombinant RTK ligand to confer resistance: 0.96
Colo 829, PLX4720 - 2 uM, ligand 25 ng/ml
  ability of recombinant RTK ligand to confer resistance: 0.95
Colo 829, PLX4720 - 2 uM, ligand 100 ng/ml
  ability of recombinant RTK ligand to confer resistance: 0.94
G-361, PD184352 - 1 uM, ligand 0.4 ng/ml
  ability of recombinant RTK ligand to confer resistance: 1.09
G-361, PD184352 - 1 uM, ligand 1.6 ng/ml
  ability of recombinant RTK ligand to confer resistance: 0.95
G-361, PD184352 - 1 uM, ligand 6.25 ng/ml
  ability of recombinant RTK ligand to confer resistance: 1.03
G-361, PD184352 - 1 uM, ligand 25 ng/ml
  ability of recombinant RTK ligand to confer resistance: 0.91
G-361, PD184352 - 1 uM, ligand 100 ng/ml
  ability of recombinant RTK ligand to confer resistance: 0.91
G-361, PLX4720 - 2 uM, ligand 0.4 ng/ml
  ability of recombinant RTK ligand to confer resistance: 0.98
G-361, PLX4720 - 2 uM, ligand 1.6 ng/ml
  ability of recombinant RTK ligand to confer resistance: 0.82
G-361, PLX4720 - 2 uM, ligand 6.25 ng/ml
  ability of recombinant RTK ligand to confer resistance: 1.04
G-361, PLX4720 - 2 uM, ligand 25 ng/ml
  ability of recombinant RTK ligand to confer resistance: 0.89
G-361, PLX4720 - 2 uM, ligand 100 ng/ml
  ability of recombinant RTK ligand to confer resistance: 0.87
SK-MEL-5, PD184352 - 1 uM, ligand 0.4 ng/ml
  ability of recombinant RTK ligand to confer resistance: 1.01
SK-MEL-5, PD184352 - 1 uM, ligand 1.6 ng/ml
  ability of recombinant RTK ligand to confer resistance: 0.97
SK-MEL-5, PD184352 - 1 uM, ligand 6.25 ng/ml
  ability of recombinant RTK ligand to confer resistance: 1.01
SK-MEL-5, PD184352 - 1 uM, ligand 25 ng/ml
  ability of recombinant RTK ligand to confer resistance: 0.96
SK-MEL-5, PD184352 - 1 uM, ligand 100 ng/ml
  ability of recombinant RTK ligand to confer resistance: 0.97
SK-MEL-5, PLX4720 - 2 uM, ligand 0.4 ng/ml
  ability of recombinant RTK ligand to confer resistance: 1.07
SK-MEL-5, PLX4720 - 2 uM, ligand 1.6 ng/ml
  ability of recombinant RTK ligand to confer resistance: 1.02
SK-MEL-5, PLX4720 - 2 uM, ligand 6.25 ng/ml
  ability of recombinant RTK ligand to confer resistance: 1.07
SK-MEL-5, PLX4720 - 2 uM, ligand 25 ng/ml
  ability of recombinant RTK ligand to confer resistance: 1.08
SK-MEL-5, PLX4720 - 2 uM, ligand 100 ng/ml
  ability of recombinant RTK ligand to confer resistance: 1.04
SK-MEL-28, PD184352 - 1 uM, ligand 0.4 ng/ml
  ability of recombinant RTK ligand to confer resistance: 1.04
SK-MEL-28, PD184352 - 1 uM, ligand 1.6 ng/ml
  ability of recombinant RTK ligand to confer resistance: 1.04
SK-MEL-28, PD184352 - 1 uM, ligand 6.25 ng/ml
  ability of recombinant RTK ligand to confer resistance: 0.91
SK-MEL-28, PD184352 - 1 uM, ligand 25 ng/ml
  ability of recombinant RTK ligand to confer resistance: 0.97
SK-MEL-28, PD184352 - 1 uM, ligand 100 ng/ml
  ability of recombinant RTK ligand to confer resistance: 1.07
SK-MEL-28, PLX4720 - 2 uM, ligand 0.4 ng/ml
  ability of recombinant RTK ligand to confer resistance: 0.97
SK-MEL-28, PLX4720 - 2 uM, ligand 1.6 ng/ml
  ability of recombinant RTK ligand to confer resistance: 1.12
SK-MEL-28, PLX4720 - 2 uM, ligand 6.25 ng/ml
  ability of recombinant RTK ligand to confer resistance: 0.99
SK-MEL-28, PLX4720 - 2 uM, ligand 25 ng/ml
  ability of recombinant RTK ligand to confer resistance: 1.08
SK-MEL-28, PLX4720 - 2 uM, ligand 100 ng/ml
  ability of recombinant RTK ligand to confer resistance: 0.99
